Reference: the RNAGym collection of RNA variant scans (doi:10.7554/elife.80360)

B1: Hairpin Ribozyme (parent)
chain: GUCCUCUUUCACGUGCGCGUGAAAGAGAGAAGUGAACCAGAGAAACACACGUUGUGGUAUAUUACCUGGUA

Variants of: B1
Assay: self-cleavage, relative activity (ratio to wild type); higher = more cleavage; co-transcriptional

| Variant | self-cleavage |
| --- | --- |
| C18U G40A | 0.265 |
| C18U G40U | 0.244 |
| G19C G54C | 0.406 |
| C18G G21A | 0.767 |
| C18G G56C | 0.176 |
| C18G G56A | 0.14 |
| G19A U63G | 0.2 |
| G19C U33G | 0.0947 |
| G19U A22G | 0.715 |
| G19U A22C | 0.625 |
| G19C A24C | 0.639 |
| G19C A24U | 0.533 |
| G19C A24G | 0.889 |
| C18A G51A | 1.01 |
| G19C G32C | 0.0926 |
| C18U U62G | 0.0807 |
| G19U A35C | 0.809 |
| C18U C38G | 0.158 |
| G17U G25U | 0.637 |
| G17U G32C | 0.137 |
| G17U G32U | 0.121 |

| Variant | self-cleavage |
| --- | --- |
| G19U C48U | 0.162 |
| G19A A61U | 0.147 |
| G19A A61G | 0.158 |
| C18G A35U | 0.544 |
| C18G G42C | 0.255 |
| G19U G54C | 0.437 |
| G19A G21A | 0.659 |
| G17U C48A | 0.106 |
| G19A C37U | 0.567 |
| C18A A64C | 0.19 |
| C18U C46U | 0.195 |
| G19C A30U | 0.161 |
| C18G G32U | 0.1 |
| C18G G32A | 0.154 |
| G19U A31G | 0.624 |
| C18A U55C | 0.3 |
| C18A G56A | 0.158 |
| C18A G56U | 0.196 |
| C18A G32A | 0.169 |
| G19A C38G | 0.159 |
| C18U U60A | 0.883 |

| Variant | self-cleavage |
| --- | --- |
| G19A C50U | 0.401 |
| G19A C50G | 0.247 |
| C18U U55G | 0.382 |
| C18U G42U | 0.407 |
| C18U G27C | 0.228 |
| C18A G69A | 0.455 |
| C18G G25A | 0.578 |
| C18U G56U | 0.115 |
| C18U G56C | 0.179 |
| G19U A44C | 0.275 |
| C18A A59G | 0.272 |
| C18A A59U | 0.242 |
| C18A U60G | 0.732 |
| C18A U60A | 1.02 |
| C18G G34C | 1.17 |
| C18G G34U | 1.32 |
| C18G G57U | 0.243 |
| C18G G57A | 0.118 |
| G19C G42U | 0.24 |
| C18G C66U | 0.479 |
| C18G C66G | 0.19 |

| Variant | self-cleavage |
| --- | --- |
| C18U G29A | 0.194 |
| C18U A44C | 0.146 |
| C18A G29U | 0.198 |
| G19A A41C | 1.13 |
| C18G U52C | 1.04 |
| C18G U52A | 0.833 |
| C18U A47U | 0.178 |
| C18A C48A | 0.14 |
| G17U G68U | 0.207 |
| G17U G68C | 0.162 |
| C18G U58C | 0.802 |
| G19U C46G | 0.157 |
| G19U C46A | 0.17 |
| G17U C65U | 0.383 |
| G19C G27A | 0.361 |
| G19C G27C | 0.133 |
| G19C G27U | 0.27 |
| C18U G34C | 1.44 |
| C18G U55G | 0.311 |
| G17U G40U | 0.181 |
| G17U U53C | 0.828 |
